According to patent US20070099822A1, “Regulation of tissue mineralization and phosphate metabolism by asarm peptides” (priority 2003, published 2007):
Several values for one entry are separate records, joined by “and”; a condition that tells them apart may be missing. Identical values can stand only once. Entries after “also recorded” stand apart in the source; their conditions may differ.

T1: MEPE-PHEX interaction (Homo sapiens, UniProt P78562)
T1 construct: to generate a soluble, secreted form of PHEX; made in house; host or cells: secPHEX: mammalian cells (gift, University of Montreal); MEPE: S. frugiperda insect cells
T1 sequence (P78562 46-749 limits assumed): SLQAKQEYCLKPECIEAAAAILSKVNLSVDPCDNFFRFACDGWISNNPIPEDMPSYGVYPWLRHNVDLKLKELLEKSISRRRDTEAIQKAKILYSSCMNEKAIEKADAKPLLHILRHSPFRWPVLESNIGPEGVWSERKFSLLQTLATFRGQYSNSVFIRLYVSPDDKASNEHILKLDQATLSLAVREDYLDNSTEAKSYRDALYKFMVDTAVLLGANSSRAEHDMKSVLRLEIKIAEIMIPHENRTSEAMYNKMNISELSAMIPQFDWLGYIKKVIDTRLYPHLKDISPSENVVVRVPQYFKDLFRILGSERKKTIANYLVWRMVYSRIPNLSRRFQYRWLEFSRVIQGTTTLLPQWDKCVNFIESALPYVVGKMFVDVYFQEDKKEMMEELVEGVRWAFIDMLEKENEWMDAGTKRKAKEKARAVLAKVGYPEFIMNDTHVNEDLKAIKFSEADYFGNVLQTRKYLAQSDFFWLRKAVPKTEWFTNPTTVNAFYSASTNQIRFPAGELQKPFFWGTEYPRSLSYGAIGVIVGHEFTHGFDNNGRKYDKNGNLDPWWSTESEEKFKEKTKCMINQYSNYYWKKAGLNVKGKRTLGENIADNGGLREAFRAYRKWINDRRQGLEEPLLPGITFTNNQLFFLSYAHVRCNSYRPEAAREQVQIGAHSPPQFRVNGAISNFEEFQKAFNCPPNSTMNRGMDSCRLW

B1: Hu-MEPE: purified insect expressed full-length recombinant human MEPE (Matrix Extracellular Phosphoglycoprotein) (protein)
chain: PTFQPQTEKTKQSCVEEQRQEEKNKDNIGFHHLGKRINQELSSKENIVQERKKDLSLSEASENKGSSKSQNYFTNRQRLNKEYSISNKENTHNGLRMSIYPKSTGNKGFEDGDDAISKLHDQEEYGAALIRNNMQHIMGPVTAIKLLGEENKENTPRNVLNIIPASMNYAKAHSKDKKKPQRDSQAQKSPVKSKSTHRIQHNIDYLKHLSKVKKIPSDFEGSGYTDLQERGDNDISPFSGDGQPFKDIPGKGEATGPDLEGKDIQTGFAGPSEAESTHLDTKKPGYNEIPEREENGGNTIGTRDETAKEADAVDVSLVEGSNDIMGSTNFKELPGREGNRVDAGSQNAHQGKVEFHYPPAPSKEKRKEGSSDAAESTNYNEIPKNGKGSTRKGVDHSNRNQATLNEKQRFPSKGKSQGLPIPSRGLDNEIKNEMDSFNGPSHENIITHGRKYHYVPHRQNNSTRNKGMPQGKGSWGRQPHSNRRFSSRRRDDSSESSDSGSSSESDGD

How the values were obtained:
MEPE-PHEX interaction = molecular target: T1, MEPE-PHEX interaction; assay: Surface plasmon resonance, peptide solution competition of secPHEX-MEPE binding
Description: Surface Plasmon Resonance: Synthetic peptides & competitive PHEX-MEPE binding studies. For these experiments CM-5 chips containing flow-cells immobilized with MEPE, PHEX and IgG ligands at 6000 RU were used. Just prior to SPR injection, stock solution of specific-peptide (as defined for each experiment; see Table 1), and dissolved in analyte buffer (HBS-P—Zn) […] The following equation was used to compute KDapp values: RU=Bmax/inhib×(peptide(μM))/KDapp+(peptide(μM)). The Bmax/inh value represents the maximal percentage inhibition change in RU (i.e., PHEX-MEPE binding) relative to the “non-peptide” control (0% inhibition of binding), using a constant analyte flow-solution of secPHEX of 250 nM against immobilized MEPE ligand at 6000 RU. […] The control MEPE-RGD peptide had no effect on MEPE-PHEX interactions.

[1] = tested on: Na+ dependent phosphate co-transport in primary human renal proximal tubule epithelial cells (RPTEC); assay: 33PO4 uptake scintillation proximity assay (SPA) in RPTEC; assay type: cell-based
Protocol: (§1) Measurement of ^33PO4 uptake and ^14C-α-methyl D-glucose uptake. A novel technique, scintillation proximity assay (SPA), was used to measure ^33PO4 uptake in-vitro. Human renal proximal-tubule primary cells (RPTEC) were purchased from Clonetics-Biowhittaker (Walkersville, Md.) (cat. no. CC2553) and were cultured and subcultured using the manufacturers recommended protocols, methods, buffers and media (cat. nos. CC3190, CC5034). Also a human renal cell-line (Hu-CL8) was cultured as previously described (Rowe et al. Candidate 56 and 58 kDa protein(s) responsible for mediating the renal defects in oncogenic hypophosphatemic osteomalacia. Bone 18(2):159-169, 1996). For ^33PO4-uptake measurement cells were grown in REBM media supplemented with 5% fetal calf serum (REBM-FCS) to 80% confluence (Clonetics-Biowhitaker, Walkersville, Md.: cat. nos. CC2553, CC3190 and CC5034) and seeded into 96 well (3000 cells/well) cytostar-T scintillating-microplates (Amersham-Pharmacia Biotech, Piscataway, N.J.: cat. no. RPNQ 0162). Cells were then cultured in 200 μL of REBM-FCS media for 24 h. Media was then replaced with serum free media (REBM) and the cells incubated for a further 3-4 h with Hu-MEPE, PTH (1-34) or media control respectively in REBM media. The concentrations of PTH (1-34) and Hu-MEPE were […] and each experimental dose was repeated eight times for statistical analysis. Following incubation media was removed and replaced with either phosphate uptake buffer (PUB) consisting of 150 mM NaCl/1 mM Cacl2/1.8 mM MgSO4/10 mM HEPE pH 7.0/0.1 mM phosphate buffer pH 7.0 and 3 uCi mL^−1 33P as orthophosphoric acid (18 MBq/mL or 5775.7 Gbq/mg stock solution Perkin Elmer, Wellesley, Mass.: cat. no. NEZ080). In order to determine the Na-dependent phosphate co-transporter activity a separate set of control cells were incubated with the same buffer but with choline chloride (150 mM) substituted for NaCl (CHUB buffer). After 10 min at 37° C. the reaction was terminated by removing the PUB and CHUB buffers and replacing with STOP buffer (CHUB buffer without radioisotope). The cytostar scintillation plates were then directly assayed for counts (CPM) using a Hewlett-Packard (Palo Alto, Calif.) Multiplate Top-counter calibrated for ^33P SPA assay. Due to the unique design of the 96 well cytostar-plate radioactive decay in solution is not detected by the counter. In contrast, radioisotope attached to or taken into the cells initiates release of plastic-scintillant photons that are detected by the top-counter photo-multiplier tube. Thus, no washes are required and direct CPM can be counted in living cells. Following CPM determination the buffers were removed from the living cells and fresh media supplemented with cell-titre-96 (Promega-Biotech, Madison, Wis.: cat. no. G5421) cell-number detection media. Cells were then further incubated at 37° C. for 4 h. Conversion of a tetrazolium salt to a colored formazan product by living cells was then measured at 490 nm using a 96 well multi-well spectrophotometer with KC-4 software (absorbance at 490 nm is directly proportional to the number of living cells). Na-dependent ^33P uptake was then calculated by subtracting background counts and the choline chloride non Na-dependent ^33P uptake and results expressed as ^33PO4 femtomoles/10^4-cells/6 min. […]

[2] = tested on: Na+ dependent phosphate co-transport in human renal proximal tubule cell-line (Hu-CL8); assay: 33PO4 uptake scintillation proximity assay (SPA) in Hu-CL8; assay type: cell-based
Protocol: as §1, with “After 10 min at 37° C. the reaction was terminated by removing the PUB and CHUB buffers and replacing with STOP buffer (CHUB buffer without radioisotope). The cytostar scintillation plates were then directly assayed for counts (CPM) using a Hewlett-Packard (Palo Alto, Calif.) Multiplate Top-counter calibrated for ^33P SPA assay.” left out, “Following CPM determination the buffers were removed from the living cells and fresh media supplemented with cell-titre-96 (Promega-Biotech, Madison, Wis.: cat. no. G5421) cell-number detection media. Cells were then further incubated at 37° C. for 4 h.” left out

Row | Kd (MEPE-PHEX interaction; 250 nM secPHEX, MEPE 6000 RU, read-out: apparent KDapp, solution competition of MEPE-PHEX binding) [µM] | Molecule | inhibition of MEPE-PHEX interaction (MEPE-PHEX interaction; peptide pre-mixed with secPHEX, MEPE-RGD up to 85 μM) | Vmax of percentage inhibition of 33PO4-uptake [1] [%] | inhibition of Na+ dependent phosphate co-transport [1] | Km of inhibition of 33PO4-uptake ([1]; lineweaver-burke plot) | Vmax of percentage inhibition of 33PO4-uptake ([2]; Hu-CL8) [%] | inhibition of Na+ dependent phosphate co-transport ([2]; Hu-CL8) | Km of inhibition of 33PO4-uptake ([2]; Hu-CL8, lineweaver-burke plot) [ng/mL]
1 | ~35 | H-CFSSRRRDDSSESSDSGSSSESDGD-OH [ASARM-peptide] | able to inhibit; also recorded: dramatic dose-dependent inhibition | – | – | – | – | – | –
2 | – | B1 | – | 53.4 | dose-dependent in-vitro inhibition | 27.4 ng/mL and 27.39 ng/mL | 9.1 | dose-dependent in-vitro inhibition | 23.8
